Test results as given in patent US20070042946A1 (NATIONAL RESEARCH COUNCIL OF CANADA, published 2007).

Columns and labels:
human α-thrombin [1] = target: T1, human α-thrombin (human, UniProt P00734 328-622); assay: cell-based or functional assay
bovine α-thrombin = bovine α-thrombin (bovine, UniProt P00735 318-625); assay: cell-based or functional assay
human α-thrombin [2] = target: T1, human α-thrombin; assay: amidolytic assay, Tos-Gly-Pro-Arg-pNA hydrolysis by human α-thrombin, 25° C.; synthetic peptide
Experimental: (§1) Kinetics of thrombin-catalyzed hydrolysis of the chromogenic substrate Tos-Gly-Pro-Arg-p-nitroanilide were followed by absorbance at 405 nm on a Spectramax plate reader thermostated at either 25° C. or 37° C. according to the method of Maragnore et al (supra). The concentrations of Tos-Gly-Pro-Arg-p-nitroanilide ranged from 2 to 400 μM. […] The KM and Vₘₐₓ values were calculated accordingly and kcat values were determined by dividing Vₘₐₓ by the enzyme (thrombin) concentration. The inhibition assays were performed in the clotting buffer with a certain fixed concentration of α-thrombin (˜0.3 nM) such that linear progress curves were achieved within at least 15 min in the absence of the inhibition. The total volume of the solution was fixed at 200 μl. […] Kinetics data from initial rate experiments were used to construct Lineweaver-Burke plot; i.e. the relationship of (substrate concentration)⁻¹ versus (initial velocity)⁻¹ which. were analysed by linear regression with MicroCal Origin 4.1 program (MicroCal, MD) or using the GraphPad Prism software. The Kᵢ values of the inhibitors were determined using the equation: Kᵢ=[I]/{(SL₀/SL₁)−1}, where [0098] […] Every Dixon plot contained an array of data corresponding to different substrate concentrations and the Kᵢ values were determined from the intersections. […]

human α-thrombin [3] = target: T1, human α-thrombin; assay: amidolytic assay, Tos-Gly-Pro-Arg-pNA hydrolysis by human α-thrombin, 25° C.; recombinant peptide
Experimental: as §1

human α-thrombin [4] = target: T1, human α-thrombin; assay: amidolytic assay, Tos-Gly-Pro-Arg-pNA hydrolysis by human α-thrombin, 25° C.
Experimental: Kinetics of thrombin-catalyzed hydrolysis of the chromogenic substrate Tos-Gly-Pro-Arg-p-nitroanilide were followed by absorbance at 405 nm on a Spectramax plate reader thermostated at either 25° C. or 37° C. according to the method of Maragnore et al (supra). The concentrations of Tos-Gly-Pro-Arg-p-nitroanilide ranged from 2 to 400 μM. […] The KM and Vₘₐₓ values were calculated accordingly and kcat values were determined by dividing Vₘₐₓ by the enzyme (thrombin) concentration. The inhibition assays were performed in the clotting buffer with a certain fixed concentration of α-thrombin (˜0.3 nM) such that linear progress curves were achieved within at least 15 min in the absence of the inhibition. The total volume of the solution was fixed at 200 μl. Reactions were initiated by addition of the chromogenic substrate to the wells containing thrombin and a certain concentration of the peptide inhibitors premixed for less than 2 min. Alternatively, the substrate was first mixed with the peptide inhibitor and the total volume was adjusted to 120 μL using the clotting buffer. Eighty microliters of human α-thrombin in the clotting buffer (˜0.3 nM final concentration) was added to initiate the reaction. The concentration of the peptides ranged from 0.5 nM to 10 μM. Kinetics data from initial rate experiments were used to construct Lineweaver-Burke plot; i.e. the relationship of (substrate concentration)⁻¹ versus (initial velocity)⁻¹ which. were analysed by linear regression with MicroCal Origin 4.1 program (MicroCal, MD) or using the GraphPad Prism software. The Kᵢ values of the inhibitors were determined using the equation: Kᵢ=[I]/{(SL₀/SL₁)−1}, where [0098] [I] is the inhibitor concentration, [0099] SL₀ is the slope of the reaction in the absence of inhibitors, and [0100] SL₁ is the slope of the reaction in the presence of the inhibitor. Alternatively, Dixon plots of inverse velocity versus the inhibitor concentrations were generated with the Sigmaplot™ software. Every Dixon plot contained an array of data corresponding to different substrate concentrations and the Kᵢ values were determined from the intersections. Following Peptide Cleavage by HPLC

Row | Binder | IC50 (DCT), clotting assay, 37° C. (human α-thrombin [1]) | Ki (human α-thrombin [4]) | other results
1 | FHPRPQSHNDGDFEEIPEEYLQ [FH22] | > 0.15 µM |  | 
2 | FDPRPQKHNDGDFEEIPEEYLQ [FD22-K] | 0.06 µM |  | 
3 | FNPRPQSHNDGDFEEIPEEYLQ (Tested as recombinant peptide (FN22^(a), released by CNBr from the MFH fusion) and as synthetic peptide; also called FN22^(a) (recombinant preparation)) [FN22] |  |  | IC50, clotting assay; recombinant peptide (bovine α-thrombin): 0.289 µM; Ki (human α-thrombin [2]): 0.08 µM; Ki (human α-thrombin [3]): 0.1 µM; IC50 (DCT), clotting assay, 37° C.; recombinant peptide FN22^(a) (human α-thrombin [1]): 0.15 µM; IC50 (DCT), clotting assay, 37° C.; synthetic peptide (human α-thrombin [1]): 0.067 µM
4 | FDPRPQDHNDGDFEEIPEEYLQ (Synthetic) [FD22-D] | 0.053 µM | 0.058 µM | 
5 | IQPRPQIHNDGDFEEIPEEYLQ [IQ22-I] | 0.039 µM | 0.049 µM | 
6 | LDPRPQSHNDGDFEEIPEEYLQ (Synthetic) [LD22] | 0.228 µM | 0.26 µM | 
7 | WDPRPQRHNDGDFEEIPEEYLQ (Synthetic) [WD22-R] | 0.022 µM | 0.017 µM | 
8 | FNPRPQIHNDGDFEEIPEEYLQ [FN22-I] | 0.045 µM | 0.36 µM | 
9 | FDPRPQSHNDGDFEEIPEEYLQ (Tested as recombinant peptide (FD22^(a), released by CNBr from the MFH fusion) and as synthetic peptide; also called FD22^(a) (recombinant preparation)) [FD22] |  |  | Ki (human α-thrombin [2]): 0.048 µM; Ki (human α-thrombin [3]): 0.055 µM; IC50 (DCT), clotting assay, 37° C.; recombinant peptide FD22^(a) (human α-thrombin [1]): 0.05 µM; IC50 (DCT), clotting assay, 37° C.; synthetic peptide (human α-thrombin [1]): 0.045 µM
10 | FDPRPQRHNDGDFEEIPEEYLQ (Synthetic) [FD22-R] | 0.032 µM | 0.045 µM | 
11 | FQPRPQMHNDGDFEEIPEEYLQ [FQ22-M] | 0.011 µM | 0.064 µM | 
12 | WDPRPQSRNDGDYEPIPEEYLQ [WD22-SR-YP] | 0.032 µM |  | 
13 | FDPRPQHHNDGDFEEIPEEYLQ [FD22-H] | 0.07 µM |  | 
14 | FEPRPQSHNDGDFEEIPEEYLQ [FE22] | 0.08 µM |  | 
15 | FEPRPQDHNDGDFEEIPEEYLQ [FE22-D] | > 0.125 µM |  | 
16 | GSAVPRPQIHNDGDFEEIPEEYLQ [GS-AV22-I] | 0.033 µM | 0.041 µM | 
17 | GSIQPRPQIHNDGDFEEIPEEYLQ [GS-IQ22-I] | 0.01 µM | > 0.4 µM | 
18 | WDPRPQSRNDGDFEPIPEEYLQ [WD22-SR-P] | 0.053 µM |  | 
